Drawing on patent publication US20110172168A1 (MEDIGENE, published 2011), this text covers Kd and koff for 21 molecules.

Where only a bound is given, the exact number is not on record here.

To fix the notation:
B1: SEQ ID NO 60 (receptor)
chain: MGHLPKPTLWAEPGSVITMDQPVTLRCQGGQETQQYRLYREKKTAPWITRIPQELVKKGQFPIPSITWEHAGRYRCYYGSDTRQWSASSDPLELVVTGVYIKPTLSAQPSPVVNSGGNVTLQCDSQVAFDGFILCKEGEDDHPQCLNSQPHARGSSRAIFSVGPVSPSRRWRYRCYAYDSNSPYEWTRGSDLLELDVDG
B2: SEQ ID NO 29 (receptor)
chain: MHLPKPTLWAEPGSVITLQSPVTLRCQGGQETQQYRLYREKKTAPWITRIPQELVKKGQFPIPSITWEHAGRYRCYYGSDTRQWSASSDPLELVVTGVYIKPTLSAQPSPVVNSGGNVTLQCDSQVAFDGFILCKEGEDDHPQCLNSQPHARGSSRAIFSVGPVSPSRRWRYRCYAYMSWSPYEWSLPSDLLELDVDG
B3: SEQ ID NO 42 (receptor)
chain: MHLPKPTLWAEPGSVITLQSPLTLRCQGGQETQQYRLYREKKTAPWITRIPQELVKKGQFPIPSITWEHAGRYRCYYGSDTRQWSASSDPLELVVTGVYIKPTLSAQPSPVVNSGGNVTLQCDSQVAFDGFILCKEGEDDHPQCLNSQPHARGSSRAIFSVGPVSPSRRWRYRCYAYDSNSPYEWSLPSDLLELDVDG
B4: SEQ ID NO 6 (receptor)
chain: MHLPKPTLWAEPGSVITLQSPVTLRCQGGQETQQYRLYREKKTAPWITRIPQELVKKGQFPIPSITWEHAGRYRCYYGSDTRQWSASSDPLELVVTGVYIKPTLSAQPSPVVNSGGNVTLQCDSQVAFDGFILCKEGEDDHPQCLNSQPHARGSSRAIFSVGPVSPSRRWRYRCYAYDSNSPYEWSLPSDLLELDVDG
B5: SEQ ID NO 26 (receptor)
chain: MHLPKPTLWAEPGSVITLQSPVTLRCQGGQETQQYRLYREKKTAPWITRIPQELVKKGQFPIPSITWEHAGRYRCYYGSDTRQWSASSDPLELVVTGVYIKPTLSAQPSPVVNSGGNVTLQCDSQVAFDGFILCKEGEDDHPQCLNSQPHARGSSRAIFSVGPVSPSRRWRYRCYAYMNWAPYEWSLPSDLLELDVDG
B6: SEQ ID NO 27 (receptor)
chain: MHLPKPTLWAEPGSVITLQSPVTLRCQGGQETQQYRLYREKKTAPWITRIPQELVKKGQFPIPSITWEHAGRYRCYYGSDTRQWSASSDPLELVVTGVYIKPTLSAQPSPVVNSGGNVTLQCDSQVAFDGFILCKEGEDDHPQCLNSQPHARGSSRAIFSVGPVSPSRRWRYRCYAYPAWTPYEWSLPSDLLELDVDG
B7: SEQ ID NO 50 (receptor)
chain: MHLPKPTLWAEPGSVITLQSPLTLRCQGGQETQQYRLYREKKTAPWITRIPQELVKKGQFPIPSITWEHAGRYRCYYGSDTRQWSASSDPLELVVTGVYIKPTLSAQPSPVVNSGGNVTLQCDSQVAFDGFILCKEGEDDHPQCLNSQPHARGSSRAIFSVGPVSPSRRWRYRCYAYMSWAPYEWSLPSDLLELDVDG
B8: SEQ ID NO 25 (receptor)
chain: MHLPKPTLWAEPGSVITLQSPVTLRCQGGQETQQYRLYREKKTAPWITRIPQELVKKGQFPIPSITWEHAGRYRCYYGSDTRQWSASSDPLELVVTGVYIKPTLSAQPSPVVNSGGNVTLQCDSQVAFDGFILCKEGEDDHPQCLNSQPHARGSSRAIFSVGPVSPSRRWRYRCYAYVAWAPYEWSLPSDLLELDVDG
B9: SEQ ID NO 24 (receptor)
chain: MHLPKPTLWAEPGSVITLQSPVTLRCQGGQETQQYRLYREKKTAPWITRIPQELVKKGQFPIPSITWEHAGRYRCYYGSDTRQWSASSDPLELVVTGVYIKPTLSAQPSPVVNSGGNVTLQCDSQVAFDGFILCKEGEDDHPQCLNSQPHARGSSRAIFSVGPVSPSRRWRYRCYAYPIWTPYEWSLPSDLLELDVDG
B10: SEQ ID NO 28 (receptor)
chain: MHLPKPTLWAEPGSVITLQSPVTLRCQGGQETQQYRLYREKKTAPWITRIPQELVKKGQFPIPSITWEHAGRYRCYYGSDTRQWSASSDPLELVVTGVYIKPTLSAQPSPVVNSGGNVTLQCDSQVAFDGFILCKEGEDDHPQCLNSQPHARGSSRAIFSVGPVSPSRRWRYRCYAYMSWAPYEWSLPSDLLELDVDG
B11: SEQ ID NO 49 (receptor)
chain: MHLPKPTLWAEPGSVITLQSPLTLRCQGGQETQQYRLYREKKTAPWITRIPQELVKKGQFPIPSITWEHAGRYRCYYGSDTRQWSASSDPLELVVTGVYIKPTLSAQPSPVVNSGGNVTLQCDSQVAFDGFILCKEGEDDHPQCLNSQPHARGSSRAIFSVGPVSPSRRWRYRCYAYMSWSPYEWSLPSDLLELDVDG
B12: SEQ ID NO 39 (receptor)
chain: MGHLPKPTLWAEPGSVITMDQPVTLRCQGGQETQEYRLYREKKTAPWITRIPQELVKKGQFPIPSITWEHAGRYRCYYGSDTAGRSESSDPLELVVTGVYIKPTLSAQPSPVVNSGGNVTLQCDSQVAFDGFILCKEGEDEHPQCLNSQPHARGSSRAIFSVGPVSPSRRWWYRCYAYMSWAPYEWSLPSDLLELDVDG
B13: SEQ ID NO 63 (receptor)
chain: MGHLPKPTLWAEPGSVITMDQPVTLRCQGGQETQEYRLYREKKTAPWITRIPQELVKKGQFPIPSITWEHAGRYRCYYGSDTSQWSASSDPLELVVTGVYIKPTLSAQPSPVVNSGGNVTLQCDSPWLADGFILCKEGEDEHPQCLNSQPHARGSSRAIFSVGPVSPSRRWWYRCYAYMSWSPYEWSLPSDLLELDVDG
B14: SEQ ID NO 66 (receptor)
chain: MGHLPKPTLWAEPGSVITMDQPVTLRCQGGQETQEYRLYREKKTAPWITRIPQELVKKGQFPIPSITWEHAGRYRCYYGSDTSQWSASSDPLELVVTGVYIKPTLSAQPSPVVNSGGNVTLQCDSPFLSDGFILCKEGEDEHPQCLNSQPHARGSSRAIFSVGPVSPSRKWWYRCYAYMSWSPYEWSLPSDLLELDVDG
B15: SEQ ID NO 41 (receptor)
chain: MGHLPKPTLWAEPGSVITMDQPVTLRCQGGQETQEYRLYREKKTAPWITRIPQELVKKGQFPIPSITWEHAGRYRCYYGSDTAGRSESSDPLELVVTGVYIKPTLSAQPSPVVNSGGNVTLQCDSQVAFDGFILCKEGEDEHPQCLNSQPHARGSSRAIFSVGPVSPSRRWWYRCYAYMSWSPYEWSLPSDLLELDVDG
B16: SEQ ID NO 64 (receptor)
chain: MGHLPKPTLWAEPGSVITMDQPVTLRCQGGQETQEYRLYREKKTAPWITRIPQELVKKGQFPIPSITWEHAGRYRCYYGSDTSQWSASSDPLELVVTGVYIKPTLSAQPSPVVNSGGNVTLQCDSPFQADGFILCKEGEDEHPQCLNSQPHARGSSRAIFSVGPVSPSRRWWYRCYAYMSWSPYEWSLPSDLLELDVDG
B17: SEQ ID NO 62 (receptor)
chain: MGHLPKPTLWAEPGSVITMDQPVTLRCQGGQETQEYRLYREKKTAPWITRIPQELVKKGQFPIPSITWEHAGRYRCYYGSDTSQWSASSDPLELVVTGVYIKPTLSAQPSPVVNSGGNVTLQCDSPFLTDGFILCKEGEDEHPQCLNSQPHARGSSRAIFSVGPVSPSRRWWYRCYAYMSWSPYEWSLPSDLLELDVDG
B18: SEQ ID NO 65 (receptor)
chain: MGHLPKPTLWAEPGSVITMDQPVTLRCQGGQETQEYRLYREKKTAPWITRIPQELVKKGQFPIPSITWEHAGRYRCYYGSDTSQWSASSDPLELVVTGVYIKPTLSAQPSPVVNSGGNVTLQCDSPFIAEGFILCKEGEDEHPQCLNSQPHARGSSRAIFSVGPVSPSRRWWYRCYAYMSWSPYEWSLPSDLLELDVDG
B19: SEQ ID NO 61 (receptor)
chain: MGHLPKPTLWAEPGSVITMDQPVTLRCQGGQETQEYRLYREKKTAPWITRIPQELVKKGQFPIPSITWEHAGRYRCYYGSDTSQWSASSDPLELVVTGVYIKPTLSAQPSPVVNSGGNVTLQCDSPWVADGFILCKEGEDEHPQCLNSQPHARGSSRAIFSVGPVSPSRRWWYRCYAYMSWSPYEWSLPSDLLELDVDG
B20: SEQ ID NO 67 (receptor)
chain: MGHLPKPTLWAEPGSVITMDQPVTLRCQGGQETQEYRLYREKKTAPWITRIPQELVKKGQFPIPSITWEHAGRYRCYYGSDTSQWSASSDPLELVVTGVYIKPTLSAQPSPVVNSGGNVTLQCDSPFVSDGFILCKEGEDEHPQCLNSQPHARGSSRAIFSVGPVSPSRRWWYRCYAYMSWSPYEWSLPSDLLELDVDG
B21: SEQ ID NO 69 (receptor)
chain: MGHLPKPTLWAEPGSVITMDQPVTLRCQGGQETQEYRLYREKKTAPWITRIPQELVKKGQFPIPSITWEHAGRYRCYYGSDTSQWSASSDPLELVVTGVYIKPTLSAQPSPVVNSGGNVTLQCDSMFLVDGFILCKEGEDEHPQCLNSQPHARGSSRAIFSVGPVSPSRRWWYRCYAYMSWSPYEWSLPSDLLELDVDG

In the test the target is T1, CEA-derived … (SEQ ID NO: 71)-HLA-A*0201 complex (biotin on the C-terminal biotinylation tag (enzymatic, BirA)).
T1 construct: also called soluble biotinylated HLA-A2-peptide complex; not shown: C-terminal biotinylation tag that replaces the transmembrane and cytoplasmic domains
Nature of the test: Biacore SPR, pMHC immobilised. The procedure:
SPR measures changes in refractive index expressed in response units (RU) near a sensor surface within a small flow cell, a principle that can be used to detect receptor ligand interactions and to analyse their affinity and kinetic parameters. The probe flow cells were prepared by immobilising the pMHC complexes in flow cells via biotin-tag binding. The assay was then performed by passing soluble ILT over the surfaces of the different flow cells at a constant flow rate, measuring the SPR response in doing so.
On the technique in general: SPR reads the build-up and loss of mass on a sensor chip optically.
With B1, the Kd (usually a measure of binding affinity in units of concentration) is at most 1000 nM and the koff (commonly a measure of how fast the partners let go of each other) is at most 2 s⁻¹.
The molecule B2 had a Kd of at most 1000 nM and a koff of at most 2 s⁻¹.
In turn, B3 had a Kd of at most 1000 nM and a koff of at most 2 s⁻¹.
Taken in the same sequence, the figures for B4 were at most 1000 nM and at most 2 s⁻¹.
For the molecule B5, the Kd is at most 1000 nM and the koff was at most 2 s⁻¹.
The molecule B6 had a Kd of at most 1000 nM and a koff of at most 2 s⁻¹.
B7: the equilibrium dissociation constant (Kd) is at most 1000 nM and the koff was at most 2 s⁻¹.
As to B8, the Kd is at most 1000 nM and the koff was at most 2 s⁻¹.
B9 yielded a dissociation constant (Kd) of at most 1000 nM and a koff of at most 2 s⁻¹.
B10 had a Kd of at most 1000 nM and a koff of at most 2 s⁻¹.
Take B11: the Kd is at most 1000 nM and the koff was at most 2 s⁻¹.
In turn, B12 registered a Kd of at most 1000 nM and a koff of at most 2 s⁻¹.
Regarding B13, the Kd was at most 1000 nM and the koff was at most 2 s⁻¹.
For B14, the Kd is at most 1000 nM and the koff is at most 2 s⁻¹.
Taken in the same sequence, the figures for B15 were at most 1000 nM and at most 2 s⁻¹.
As for B16, the Kd was at most 1000 nM and the dissociation rate constant (koff) was at most 2 s⁻¹.
The corresponding values for B17 are at most 1000 nM and at most 2 s⁻¹.
As to B18, the Kd was at most 1000 nM and the off-rate constant (koff) was at most 2 s⁻¹.
B19 showed a Kd of at most 1000 nM and a koff of at most 2 s⁻¹.
In turn, B20 yielded a Kd of at most 1000 nM and a koff of at most 2 s⁻¹.
For B21, the Kd was at most 1000 nM and the off-rate (koff) was at most 2 s⁻¹.
